From patent US20250145684A1
Where two headings read alike, the source gives them in different places.

Molecular target: HLA-B*08:01 (human)
Experiment: UV peptide exchange ELISA

## FAFEKLIQF (modifications not checked) [… (SEQ ID NO: 101)]
  peptide exchange yield: 50 to 75%

## EPVTKAEM [EPVTKAEM (SEQ ID NO: 97)]
remark: other sources report otherwise
  peptide exchange yield: 50 to 75%
